Columns and labels:
IGF-1 [1] = target: T1, IGF-1 (human, UniProt P05019); assay: competition, 125I-IGF-1 binding to MCF-7 cells
IGF-1 [2] = target: T1, IGF-1; assay: competition, IGF-1 phage binding to IGFBP-3
IGF-1 [3] = target: T1, IGF-1; assay: competition, IGF-1 phage binding to IGFBP-1

T1 sequence (P05019 49-118): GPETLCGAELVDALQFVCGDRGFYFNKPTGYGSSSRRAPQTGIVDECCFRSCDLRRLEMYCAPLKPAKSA

Row | IC50 (IGF-1 [1]) [µM] | IC50 (IGF-1 [2]) [µM] | IC50 (IGF-1 [3]) [µM] | Binder
1 | 5.12 | 2.93 | 1.4 | RNCFESVAALRRCMYG [F1-1]
2 | 15.3 | 9.2 | 15.5 | MDCLASVEALKWCMYG [F1-2]
3 | 45.7 | 12.8 | 11.7 | FECLTSVEALRGCMYG [F1-3]

— US7071300 (dated 2006)
